The source of these data is article PMC4208029 (Scientific Reports, 2014).

The assay addresses T1, human full-length glucose transporter GLUT-1 (human, UniProt P11166 1-492).
T1 sequence (looked up): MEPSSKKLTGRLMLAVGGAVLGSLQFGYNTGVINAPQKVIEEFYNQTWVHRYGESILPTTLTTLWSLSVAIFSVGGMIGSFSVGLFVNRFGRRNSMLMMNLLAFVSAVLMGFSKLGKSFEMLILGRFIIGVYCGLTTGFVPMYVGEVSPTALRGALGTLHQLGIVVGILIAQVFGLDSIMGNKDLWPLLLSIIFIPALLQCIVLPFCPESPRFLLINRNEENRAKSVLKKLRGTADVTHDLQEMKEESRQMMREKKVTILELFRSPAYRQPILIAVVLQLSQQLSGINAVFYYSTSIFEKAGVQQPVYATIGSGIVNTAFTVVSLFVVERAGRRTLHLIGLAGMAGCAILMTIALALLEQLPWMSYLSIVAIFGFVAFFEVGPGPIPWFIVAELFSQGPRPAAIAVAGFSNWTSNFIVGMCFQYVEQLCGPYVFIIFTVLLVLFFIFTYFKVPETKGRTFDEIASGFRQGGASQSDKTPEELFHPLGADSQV
The experiment in a line: SPR. (In general: SPR reads the build-up and loss of mass on a sensor chip optically.)

B1: Nb-GLUT-1 (VHH)
VHH: QVQLLESGGGLVQPGGSLRLSCAASGFTFSSYAMSWVRQAPGKGLEWVSTITAKGRQTYYADSVKGRFTISRDNSKNTLYLQMNSLRAEDTAVYYCATGPMYQPQFGSWGQGTLVTVSS
By Kd is commonly meant the constant that tells how readily two partners part at equilibrium. Higher therefore signals a looser complex. For orientation: koff means the first-order rate constant of dissociation. Read a low koff as slow dissociation. Usually kon stands for the rate constant with which the complex forms. The low end stands for slow association, the high end for fast association. In turn, B1 had a dissociation constant (Kd) of 22.3 nM, a koff of 0.0016 s⁻¹ and a kon of 120000 M⁻¹ s⁻¹.
